According to patent publication US20260078196A1 (TJ BIOPHARMA SHANGHAI, published 2026):

T1: huMUC16, AA14198-14507
T1 chain: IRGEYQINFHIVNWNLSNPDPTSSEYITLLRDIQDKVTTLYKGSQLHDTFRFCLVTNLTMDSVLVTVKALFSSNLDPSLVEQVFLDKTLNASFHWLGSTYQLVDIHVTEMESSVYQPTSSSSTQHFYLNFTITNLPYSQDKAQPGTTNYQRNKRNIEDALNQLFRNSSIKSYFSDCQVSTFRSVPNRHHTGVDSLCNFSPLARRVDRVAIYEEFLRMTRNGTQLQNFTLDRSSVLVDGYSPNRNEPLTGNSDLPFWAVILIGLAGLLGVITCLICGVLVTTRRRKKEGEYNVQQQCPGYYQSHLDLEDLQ

T2: huMUC16, AA13789-14451
T2 construct: also called MUC16 Antigen (human MUC16 AA13789-14451)
T2 chain: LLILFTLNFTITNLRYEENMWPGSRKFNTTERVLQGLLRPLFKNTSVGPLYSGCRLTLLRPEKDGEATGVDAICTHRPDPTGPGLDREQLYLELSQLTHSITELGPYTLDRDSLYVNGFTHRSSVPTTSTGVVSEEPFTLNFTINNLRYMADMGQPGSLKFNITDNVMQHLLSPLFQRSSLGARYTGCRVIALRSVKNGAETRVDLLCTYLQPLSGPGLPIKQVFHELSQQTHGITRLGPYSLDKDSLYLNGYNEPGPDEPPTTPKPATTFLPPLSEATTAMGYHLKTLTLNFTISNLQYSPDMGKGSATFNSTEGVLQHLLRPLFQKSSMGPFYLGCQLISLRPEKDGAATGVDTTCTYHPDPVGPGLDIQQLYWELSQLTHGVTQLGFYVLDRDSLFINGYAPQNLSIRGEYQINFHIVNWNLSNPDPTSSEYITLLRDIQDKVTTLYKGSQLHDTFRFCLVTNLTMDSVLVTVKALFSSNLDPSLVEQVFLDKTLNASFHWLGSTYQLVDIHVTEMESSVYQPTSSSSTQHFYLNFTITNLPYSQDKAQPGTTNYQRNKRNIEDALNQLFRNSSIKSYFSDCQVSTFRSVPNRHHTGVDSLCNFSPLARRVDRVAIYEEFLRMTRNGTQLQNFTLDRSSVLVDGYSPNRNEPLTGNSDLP

T3: HEK293-MUC16 (13810-14507) (human, UniProt Q8WXI7 13810-14507)
T3 construct: range 13810-14507; also called MUC16 overexpressed HEK293 cells
T3 sequence: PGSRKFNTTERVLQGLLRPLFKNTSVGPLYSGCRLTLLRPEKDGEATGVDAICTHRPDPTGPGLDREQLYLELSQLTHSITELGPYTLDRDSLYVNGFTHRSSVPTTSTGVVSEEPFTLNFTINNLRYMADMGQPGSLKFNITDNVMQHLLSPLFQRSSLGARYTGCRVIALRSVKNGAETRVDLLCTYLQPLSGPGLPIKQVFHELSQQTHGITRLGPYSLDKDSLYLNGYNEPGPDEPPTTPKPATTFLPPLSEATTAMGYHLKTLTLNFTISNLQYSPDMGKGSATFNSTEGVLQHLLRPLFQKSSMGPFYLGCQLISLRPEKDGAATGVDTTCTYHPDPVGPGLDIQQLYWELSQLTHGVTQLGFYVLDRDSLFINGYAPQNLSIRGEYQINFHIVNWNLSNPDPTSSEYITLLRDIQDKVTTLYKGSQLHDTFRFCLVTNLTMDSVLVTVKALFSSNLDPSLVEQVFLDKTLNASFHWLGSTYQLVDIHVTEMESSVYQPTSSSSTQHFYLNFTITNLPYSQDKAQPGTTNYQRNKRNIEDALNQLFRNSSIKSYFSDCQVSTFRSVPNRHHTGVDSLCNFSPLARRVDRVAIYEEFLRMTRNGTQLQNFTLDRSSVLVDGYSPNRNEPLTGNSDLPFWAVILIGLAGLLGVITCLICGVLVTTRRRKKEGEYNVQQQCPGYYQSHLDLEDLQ


Legend:
huMUC16, AA14198-14507 = biological target: T1, huMUC16, AA14198-14507; experiment: binding ELISA on huMUC16 AA14198-14507
human MUC16 on cells [1] = biological target: T4, human MUC16 on cells (human, UniProt Q8WXI7 1-14507); experiment: flow cytometry (GMFI) on OVCAR3 cells, nM is the unit of the x axis Log10[Ab] (nM); curve without upper plateau
T4 construct: whole, on cells; also called huMUC16; MUC16 on OVCAR3 and SNU216 cells

huMUC16, AA13789-14451 = biological target: T2, huMUC16, AA13789-14451; experiment: binding ELISA on huMUC16 AA13789-14451
human MUC16 on cells [2] = biological target: T4, human MUC16 on cells; experiment: flow cytometry (GMFI) on OVCAR3 cells, nM is the unit of the x axis Log10[Ab] (nM); curve without upper plateau; remark: listed apart in the source
human MUC16 on cells [3] = biological target: T4, human MUC16 on cells; experiment: flow cytometry (MFI GeoMean) on OVCAR3 cells, nM is the unit of the x axis Log10[Ab] (nM)
human MUC16 on cells [4] = biological target: T4, human MUC16 on cells; experiment: flow cytometry (GMFI) on OVCAR3 cells, nM is the unit of the x axis Log10[Ab] (nM)
human MUC16 = biological target: T5, human MUC16 (human); experiment: binding kinetics, sensorgrams in RU in FIG. 14B, model printed: Kinetics 1:1; form of the MUC16 antigen not given
T5 construct: also called MUC16 antigen of the kinetic assay

human MUC16 on cells [5] = biological target: T4, human MUC16 on cells; experiment: flow cytometry (MFI GeoMean) on SNU216 cells, nM is the unit of the x axis Log10[Ab] (nM)
[6] = biological target: T3, HEK293-MUC16 (13810-14507); experiment: flow cytometry (MFI GeoMean) on HEK293-MUC16 (13810-14507) cells, nM is the unit of the x axis Log10[Ab] (nM)

Row | binding result (huMUC16, AA14198-14507) | EC50 (human MUC16 on cells [1]) | binding result (huMUC16, AA13789-14451) | EC50 (human MUC16 on cells [2]) | EC50 (human MUC16 on cells [3]) | EC50 (human MUC16 on cells [4]) | Kd (human MUC16) | koff (human MUC16) | EC50 (human MUC16 on cells [5]) | EC50 [6] | kon (human MUC16) | Binder
1 | no binding (tested: 100 nM) | 40.6 nM | binds | – | – | – | – | – | – | – | – | D79 (antibody, V domains shown, Anti-MUC16 mAb) VH: QMQLVQSGAEVKKPGSSVKVSCKASGGTFSSYAISWVRQAPGQGLEWMGGIIPIFGTANYAQKFQGRVTITADESTSTAYMELSSLRSEDTAVYYCARDSGSSITMVRGGDYYYMDVWGKGTTVTVSS VL: not shown
2 | no binding (tested: 100 nM) | – | binds | 23.1 nM | – | – | – | – | – | – | – | D41 (antibody, V domains shown, Anti-MUC16 mAb) VH: EVQLLESGGGLVQPGGSLRLSCAASGFTFSSYEMNWVRQAPGKGLEWVGRIKSKTDGGTTDYAAPVKGRFTISRDDSKNTLYLQMNSLKTEDTAVYYCTTDLAAVAGLFDYWGQGTTVTVSS VL: DIQLTQSPSSLSASVGDRVTITCQASQDISNYLNWYQQKPGKAPKLLIYDASNLETGVPSRFSGSGSGTDFTLTISSLQPEDFATYYCQQSYSTPWKFGQGTKVEIK
3 | – | – | – | – | 0.763 nM | 0.526 nM | 5.26 nM | 0.0035 s⁻¹ | 1.24 nM | 0.579 nM | – | D57 (antibody, V domains shown, Anti-MUC16 mAb; also called MUC16-D57) VH: EVQLLESGGGLVTPGGSLRLSCTASGFTFSDYYLSWVRQAPGKGLEWMGGIIPIFGTANYAQKFQGRVTITADESTSTAYMELSSLRSEDTAVYYCARGGPHYDFWSGYTPGQHGGAFDIWGQGTMVTVSS VL: EIVLTQSPGTLSLSPGERATLSCRASQSVSSSYLAWYQQKPGQAPRLLIYGASSRATGIPDRFSGSGSGTDFTLTISRLEPEDFAVYYCQQRSNWRNTFGQGTRLEIK
4 | no binding (tested: 100 nM) | – | binds | – | 0.907 nM | 0.687 nM | 6.17 nM | 0.0031 s⁻¹ | 0.76 nM | 0.244 nM | 502000 M⁻¹ s⁻¹ | B218 (antibody, V domains shown, Anti-MUC16 mAb; also called MUC16-B218) VH: EVQLLESGAEVKKPGSSVKVSCKASGGTFSSYAISWVRQAPGQGLEWMGGIIPIFGTANYAQKFQGRVTITADESTSTAYMELSSLRSEDTAVYYCARGGPHYDFWSGYTPGQHGGAFDIWGQGTMVTVSS VL: NIQMTQSPSTLSASLGDRVSITCRASQSISGWLAWYQQKPGKAPKLLIYRTSYLESGVPSRFSAGGSGTEFTLTISSLQPDDFATYYCQHYDTFSRAFGQGTKVDIK
5 | no binding (tested: 100 nM) | – | binds | 50.1 nM | – | – | – | – | – | – | – | C73 (antibody, V domains shown, Anti-MUC16 mAb) VH: QVQLMQSGAEVKKPGSSVKVSCKASGGTFSSYAISWVRQAPGQGLEWMGGIIPIFGTANYAQKFQGRVTITADESTSTAYMELSSLRSEDTAVYYCAREPPLSNYGDYATEQYYYGMDVWGQGTLVTVSS VL: not shown
6 | no binding (tested: 100 nM) | – | binds | 14.1 nM | – | – | – | – | – | – | – | D20 (antibody, V domains shown, Anti-MUC16 mAb) VH: QVQLVQSGAEVKKPGSSVKVSCKASGGTFSSYAISWVRQAPGQGLEWMGGIIPIFGTANYAQKFQGRVTITADESTSTAYMELSSLRSEDTAVYYCASTPELLWFGELGGAYYFDYWGQGTLVTVSS VL: NIQLTQSPSTLSASVGDRVTITCRASESISSWLAWYQQKPGEAPKLLIYKASTLENGVPSRFSGSGSETEFTLTISSLQPDDFATYYCQQYRSHWSSTFGPGTKVDIK
7 | no binding (tested: 100 nM) | 16.8 nM | binds | – | – | – | – | – | – | – | – | B76 (antibody, V domains shown, Anti-MUC16 mAb) VH: QMQLVQSGAEVKKPGSSVKVSCKASGGTFSSYAISWVRQAPGQGLEWMGGIIPIFGTANYAQKFQGRVTITADESTSTAYMELSSLRSEDTAVYYCARSITDYYDSSGYYFRPHFNTGYYYGMDVWGQGTTVTVSS VL: NIQLTQSPSSLSASVGDRVTITCRASQGINNYLAWYQQKPGKVPKLLIYAASTLQSGVPSRFSGSGSGTDFTLTITNLQPDDFATYYCQQYDTFSETFGPGTKVEIK
8 | no binding (tested: 100 nM) | – | binds | 27.6 nM | – | – | – | – | – | – | – | D1 (antibody, V domains shown, Anti-MUC16 mAb) VH: QVQLVQSGAEVKKPGSSVKVSCKASGGTFSSYAISWVRQAPGQGLEWMGGIIPIFGTANYAQKFQGRVTITADESTSTAYMELSSLRSEDTAVYYCARAPMVRGVPPTPYYYYYGMDVWGQGTTVTVSS VL: EIVLTQSPATLSLSPGERATLSCRASQSVSNYLAWYQQKPGQAPRLLIYDASNRATGIPARFSGSGSGTDFTLTISSLEPEDFAVYYCQQRSNWPSFGQGTKVEIK
9 | no binding (tested: 100 nM) | – | binds | – | 0.286 nM | 0.395 nM | – | – | 0.12 nM | 0.0874 nM | – | D100 (antibody, V domains shown, Anti-MUC16 mAb; also called MUC16-D100) VH: QVQLVQSGAEVKKPGSSVKVSCKASGGTFSRYHAISWVRQAPGQGLEWMGGIIPILGTANYAQKFQGRVTITADESTSTAYMELSSLRSEDTAVYYCASGTTAARYYYYYYYMDVWGKGTTVTVSS VL: NIQMTQSPSSLSASVGDRVTITCQASQDISNYLNWFHQKPGKAPNLLIYDASNLETGVPSRFSGSGSGTDFTFTISSLQPEDIGTYYCQQYDNLPLTFGGGTKVDIK
10 | no binding (tested: 100 nM) | 15.1 nM | binds | – | – | – | – | – | – | – | – | B195 (antibody, V domains shown, Anti-MUC16 mAb) VH: EVQLVQSGAEVKKPGASVKVSCKASGGTFSSYAISWVRQAPGQGLEWMGGIIPIFGTANYAQKFQGRVTITADESTSTAYMELSSLRSEDTAVYYCAREGPDYGDYSWSMDYYYGMDVWGQGTMVTVSS VL: EIVMTQSPGTLSLSPGERATLSCRASQSVNSRYLAWYQHKPGQAPRLLMYGASTRATGIPDRFSGSGSGTDFTLTISRLEPEDFAVYYCQQYGTFSITFGQGTRLEIK
